According to patent publication US20030135880A1, “Compositions and methods for halogenation reactions” (priority 2002, published 2003):

Target: PrnA (Pseudomonas fluorescens, UniProt P95480)
Test: Halogenation by PrnA expressed in transgenic plants, immunopurified and assayed in vitro (Example 5)
Assay type: biochemical
Design: made in house; host or cells: Transgenic Arabidopsis thaliana (Columbia) lines 3 and 12; leaf extract immunopurified on goat anti-PrnA sera with anti-goat-IgG-agarose
Details: immunopurified PrnA with Fre (20 microliter, 21 microgram/ml), overnight
Experimental: Arabidopsis thaliana, ecotype Columbia, is transformed (by the Agrobacterium-mediated transformation method) with the four nucleic acid molecules of the pyrrolnitrin operon, encoding PrnA, PrnB, PrnC & PrnD, each behind the ubiquitin promoter as described below in Example 6.
Two transformed lines (3 and 12) and a nontransformed control line are grown and leaves (1 g) harvested. The leaves are frozen in liquid N2, powdered in a mortar and extracted with 6 ml of LS buffer (50 mM HEPES, pH 7.5, 5 mM NaCl). After centrifugation at 5000×g for 15 min to pellet debris, the supernate is filtered through glass wool to remove residual particles.
PrnA is immunopurified by mixing extract (3 ml) with an affinity matrix. The affinity matrix is prepared by mixing for 30 minutes, at room temperature, 100 microliters of rabbit antigoat-IgG-agarose (purchased from Sigma) with 50 microliters of goat anti-PrnA sera. Then the agarose beads are washed three times with 1 ml of LS buffer. After mixing the 3 ml sample with the affinity matrix, unabsorbed material is removed from the beads by washing with LS buffer. A positive control sample is prepared by mixing 5 microliter of PrnA (0.36 microgram/microliter) purified from Pseudomonas fluorescens as described in Example 1 with 3 ml LS then treating in parallel with the plant extract samples. […]

B1: PrnA: PrnA purified from Pseudomonas fluorescens, positive control added to non-transformed plant extract (protein)
chain: MNKPIKNIVIVGGGTAGWMAASYLVRALQQQANITLIESAAIPRIGVGEATIPSLQKVFFDFLGIPEREWMPQVNGAFKAAIKFVNWRKSPDPSRDDHFYHLFGNVPNCDGVPLTHYWLRKREQGFQQPMEYACYPQPGALDGKLAPCLSDGTRQMSHAWHFDAHLVADFLKRWAVERGVNRVVDEVVDVRLNNRGYISNLLTKEGRTLEADLFIDCSGMRGLLINQALKEPFIDMSDYLLCDSAVASAVPNDDARDGVEPYTSSIAMNSGWTWKIPMLGRFGSGYVFSSHFTSRDQATADFLKLWGLSDNQPLNQIKFRVGRNKRAWVNNCVSIGLSSCFLEPLESTGIYFIYAALYQLVKHFPDTSFDPRLSDAFNAEIVHMFDDCRDFVQAHYFTTSRDDTPFWLANRHDLRLSDAIKEKVQRYKAGLPLTTTSFDDSTYYETFDYEFKNFWLNGNYYCIFAGLGMLPDRSLPLLQHRPESIEKAEAMFASIRREAERLRTSLPTNYDYLRSLRDGDAGLSRGQRGPKLAAQESL
- level of 7-Cl-Trp found: 185 pmol
